Assay [1] concerns the target T1, human ghrelin receptor (GHSR) (Homo sapiens, UniProt Q92847, C146S/C304S).
T1 construct: integrin α5 fragment (N); polyhistidine tag (C); made in house; host or cells: E. coli BL21(DE3)
The experiment in a line: Bimane fluorescence assay on purified ghrelin receptor in nanodiscs. Type of assay: biochemical. The note with it: for conformational change in the receptor: in presence of JMV1843. From the text:
Another assay that can be used to analyse conformational changes associated with GPCR activation and/or to identify G protein peptidomimetics that are capable of stabilizing a GPCR in an active conformational state is the bimane fluorescence assay or bimane assay. This assay works through labelling of a cysteine residue in the lower part of the TM6 of a GPCR with a bimane-fluorophore (monobromobimane (MB)). Binding of an agonist to the GPCR causes a conformational change and outward movement of TM6 that places bimane in a more solved-exposed position, which will alter its maximum emission wavelength. In particular, increasing concentrations of agonist result in a concentration-dependent red-shift of the maximum emission wavelength (λmax) of the bimane-fluorophore probe. In the presence of a G protein or an active state stabilizing G protein peptidomimetic λmax may increase further. For example, a bimane labelled ghrelin receptor (such as a cysmin mutant (i.e. mutant with minimal cysteines) of human ghrelin receptor (also referred to herein as growth hormone secretagogue receptor (GHSR) (e.g. the mutant as described in Damian et al. (2021) wherein monobromobimane (MB) fluorescent probe is attached to Cys^255) and ghrelin receptor agonist JMV1843 may be used.
The bimane fluorescence assays on the ghrelin receptor were performed as described in Damian et al. (2021. Nat. Commun. 12:1-15). Briefly, E. coli bacteria (BL21(DE3)) were transformed with a vector encoding the human ghrelin receptor with an integrin α5 fragment at the N-terminus and a polyhistidine tag at the C-terminus. The receptors were then purified and reconstituted into lipidated nanodiscs. The monobromobimane labeling was performed by incubating the receptors, with a unique reactive cysteine at position 255, during 16 h in the dark at 4° C. and in the presence of 0.1 mM tris(2-carboxyethyl)phosphine (TCEO). The reaction was terminated with 5 mM L-cysteine and unreacted monobromobimane was removed using a Zeba™ Spin desalting column.
For the fluorescence assay, the labeled receptor was incubated during 2 h at 20° C. (0.2 μM final concentration), in the absence or presence of the full agonist JMV1843 (20 μM) and in the absence or presence of either the peptidomimetics at varying molar ratios or the purified Gαqβ1γ2 heterotrimer, at a 1:5 receptor-to-G protein molar ratio. Afterwards, the fluorescence experiments were performed on a Horiba Fluoromax-4 TCSP spectrofluorimeter. For each scan, the excitation wavelength (λexc) was set at 380 nm and emission was collected between 440 nm and 520 nm.
The bimane assay is used on GPCRs to detect conformational changes associated with receptor activation. This assay functions through the labelling of a cysteine, which is one of the least frequently occurring amino acids in proteins. Additionally, the majority of the extracellular cysteines form disulfide bonds, which, together with the transmembrane cysteines, are inert to thiol-reactive reagents. Additionally, some of the intracellular cysteines in the C-terminal tail may carry post-translational modifications which reduces the number of reactive cysteines in the receptor (Tian et al. 2017. Chem. Rev. 117:186-245). For GHSR, the remaining reactive cysteine residues C146 (ICL2) and C304 (extracellular end of TM7) were replaced by serines (cysmin mutant, i.e. mutant with minimal cysteines), to allow the monobromobimane (MB) fluorescent probe to be specifically attached to Cys255 in the lower part of TM6 (FIG. 5a) (Damian et al. 2021). In this assay, bimane is chosen because of its small size and sensitivity to the polarity of its environment (Yao et al. 2006. Nat Chem. Biol. 2:417-422). Binding of a ligand to the receptor, causes a conformational change and outward movement of TM6 that places bimane in a more solvent-exposed position, which alters its maximum emission wavelength. […]

In assay [2] the target is T2, full-length human muscarinic 1 receptor with a FLAG tag at the N-terminus (human, UniProt P11229 1-460).
T2 sequence: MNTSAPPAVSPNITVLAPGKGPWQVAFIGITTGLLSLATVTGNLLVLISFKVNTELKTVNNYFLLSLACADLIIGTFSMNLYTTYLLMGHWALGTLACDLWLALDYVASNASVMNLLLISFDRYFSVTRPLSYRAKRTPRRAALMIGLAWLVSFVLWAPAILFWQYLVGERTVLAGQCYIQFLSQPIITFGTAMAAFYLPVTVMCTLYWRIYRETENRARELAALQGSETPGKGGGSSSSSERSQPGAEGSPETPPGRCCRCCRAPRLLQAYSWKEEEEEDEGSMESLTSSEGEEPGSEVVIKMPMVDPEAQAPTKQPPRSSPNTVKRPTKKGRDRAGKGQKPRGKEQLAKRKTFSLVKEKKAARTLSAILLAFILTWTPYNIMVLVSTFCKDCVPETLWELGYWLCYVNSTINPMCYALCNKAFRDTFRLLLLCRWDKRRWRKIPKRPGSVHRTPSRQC
The experiment in a line: cell-based or functional assay.

The target of assay [3] is ghrelin receptor overexpressed on HEK293 cells (UniProt Q92847 1-366, limits assumed). Description: cell-based or functional assay.

Positions of bridges follow the written chain, without caps; N, C: chain ends. Non-standard residues stand in square brackets, D forms with d. Residues, ends and D or L forms follow the SMILES beside them. Triazole bridges read from a SMILES are 1,4-linked. Lys(N3) = [N-]=[N+]=NCCCC[C@H](N)C(=O)O; Cha = N[C@@H](CC1CCCCC1)C(=O)O; Pra = C#CC[C@H](N)C(=O)O

Sequence of ghrelin receptor overexpressed on HEK293 cells (Q92847 whole entry): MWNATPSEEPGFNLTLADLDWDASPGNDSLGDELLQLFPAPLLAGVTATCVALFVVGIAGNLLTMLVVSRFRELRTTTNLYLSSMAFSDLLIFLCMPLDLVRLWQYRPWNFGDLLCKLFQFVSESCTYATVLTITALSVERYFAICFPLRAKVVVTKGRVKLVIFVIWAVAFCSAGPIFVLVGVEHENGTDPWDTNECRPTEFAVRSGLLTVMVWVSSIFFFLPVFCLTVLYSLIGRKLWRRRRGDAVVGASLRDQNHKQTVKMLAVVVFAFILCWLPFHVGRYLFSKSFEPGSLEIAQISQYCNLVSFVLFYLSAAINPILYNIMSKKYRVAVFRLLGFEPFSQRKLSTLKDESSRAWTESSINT
T1 sequence (Q92847 whole entry C146S/C304S, the tested form may be a part): as the sequence (Q92847 whole entry) above, with C146S, C304S counted along it

As to `CC(C)(N)C(=O)N[C@H](Cc1c[nH]c2ccccc12)C(=O)N[C@H](Cc1c[nH]c2ccccc12)NC=O` [JMV1843, reference compound], the “maximum emission wavelength of bimane” value in assay [1] (agonist JMV1843 alone, in the absence of the Gq protein) is on record as about 476 nm.

With `CC[C@H](C)[C@H](NC(=O)[C@@H](NC(=O)[C@H](CC(=O)O)NC(=O)[C@H](CCCCN)NC(=O)[C@@H](NC(=O)[C@H](C)NC(=O)[C@H](C)NC(=O)[C@H](Cc1ccccc1)NC(C)=O)C(C)C)[C@@H](C)O)C(=O)N[C@@H](CC(C)C)C(=O)N[C@@H](CCC(N)=O)C(=O)N[C@@H](CC(C)C)C(=O)N[C@@H](CC(N)=O)C(=O)N[C@@H](CC(C)C)C(=O)N[C@@H](CCCCN)C(=O)N[C@@H](CCC(=O)O)C(=O)N[C@@H](Cc1ccc(O)cc1)C(=O)N[C@@H](CC(N)=O)C(=O)N[C@@H](CC1CCCCC1)C(=O)N[C@H](C(=O)O)C(C)C` [SBL-GQ-03] (Ac-FAAVKDTILQLNLKEYN[Cha]V-OH), the “conformational change in the receptor” value in assay [1] (bimane labeled GHSR) is “not able to induce a conformational change”. As for `CC[C@H](C)[C@H](NC(=O)[C@@H]1CCCCn2cc(nn2)C[C@H](NC(=O)[C@H](C)NC(=O)[C@H](Cc2ccccc2)NC(=O)[C@H](CCCCN)NC(=O)[C@H](CCCCN)NC(=O)[C@H](CCCCN)NC(C)=O)C(=O)N[C@@H](C(C)C)C(=O)N[C@@H](CCCCN)C(=O)N[C@@H](CC(=O)O)C(=O)N1)C(=O)N[C@@H](CC(C)C)C(=O)N[C@@H](CCC(N)=O)C(=O)N[C@@H](CC(C)C)C(=O)N[C@@H](CC(N)=O)C(=O)N[C@@H](CC(C)C)C(=O)N[C@@H](CCCCN)C(=O)N[C@@H](CCC(=O)O)C(=O)N[C@@H](Cc1ccc(O)cc1)C(=O)N[C@@H](CC(N)=O)C(=O)N[C@@H](CC(C)C)C(=O)N[C@H](C(=O)O)C(C)C` [SBL-GQ-05] (Ac-KKKFA[Pra]VKD[Lys(N3)]ILQLNLKEYNLV-OH; triazole 6-10), in assay [1] (highest peptide concentrations (GHSR:peptide 1:50, 1:100), with JMV1843, read-out: effect normalized to the maximal effect of the Gq protein), the Emax was about 90%. In the case of Ac-FAAVKDTILQLNLKEYNLV-OH [SBL-GQ-01], the “conformational change in the receptor” value in assay [1] (bimane labeled GHSR) was “not able to induce a conformational change”. “Gq protein: purified Gαqβ1γ2 heterotrimer used as reference in the bimane assay”: in assay [1] (bimane labeled GHSR, in presence of full agonist JMV1843 (20 μM)), the “maximum emission wavelength of bimane” value is recorded as about 480.5 nm.

B1: SBL-GQ-10 (peptide)
peptide: Ac-KKKFNDCKDIILQMNLREYN[Cha]V-OH
SMILES: CC[C@H](C)[C@H](NC(=O)[C@H](CC(=O)O)NC(=O)[C@H](CCCCN)NC(=O)[C@H](CS)NC(=O)[C@H](CC(=O)O)NC(=O)[C@H](CC(N)=O)NC(=O)[C@H](Cc1ccccc1)NC(=O)[C@H](CCCCN)NC(=O)[C@H](CCCCN)NC(=O)[C@H](CCCCN)NC(C)=O)C(=O)N[C@H](C(=O)N[C@@H](CC(C)C)C(=O)N[C@@H](CCC(N)=O)C(=O)N[C@@H](CCSC)C(=O)N[C@@H](CC(N)=O)C(=O)N[C@@H](CC(C)C)C(=O)N[C@@H](CCCNC(=N)N)C(=O)N[C@@H](CCC(=O)O)C(=O)N[C@@H](Cc1ccc(O)cc1)C(=O)N[C@@H](CC(N)=O)C(=O)N[C@@H](CC1CCCCC1)C(=O)N[C@H](C(=O)O)C(C)C)[C@@H](C)CC
As for B1, in assay [2], the “IC50 (µM) of the agonist acetylcholine chloride for the M1 receptor in the presence of the peptidomimetic, RLA” value (from here on “IC50 (µM)”) stood at 409 µM and the “Shift (IC50 ratio without/with peptidomimetic), RLA” value is 2.

For the molecule H-KKKFA[Pra]VKD[Lys(N3)]ILQLNLKEYNLV-OH (triazole 6-10) [SBL-GQ-13], in assay [3], the “EC50 (M) of the MK0677 agonist, IP-One Gq assay, peptidomimetic at 10 µM, n = 1” value was 4.42e-10 M; the “EC50 (M) of the MK0677 agonist, IP-One Gq assay, peptidomimetic at 10 µM, n = 2” value is 1.01e-10 M; the “EC50 (M) of the MK0677 agonist, IP-One Gq assay, peptidomimetic at 10 µM, n = 3” value was 1.31e-10 M.

On to Ac-KKKFNDCKDIILQMNLREYNLV-OH [SBL-GQ-08], for which, in assay [2], the “IC50 (µM)” value was 413 µM and the “Shift (IC50 ratio without/with peptidomimetic), RLA” value stood at 2. Regarding H-RRRRFA[Pra]VKD[Lys(N3)]ILQLNLKEYNLV-OH (triazole 7-11) [SBL-GQ-14], in assay [3], the “EC50 (M) of the MK0677 agonist, IP-One Gq assay, peptidomimetic at 10 µM, n = 1” value amounted to 6.96e-10 M; the “EC50 (M) of the MK0677 agonist, IP-One Gq assay, peptidomimetic at 10 µM, n = 2” value is 1.01e-10 M; the “EC50 (M) of the MK0677 agonist, IP-One Gq assay, peptidomimetic at 10 µM, n = 3” value turned out to be 1.87e-10 M. For the molecule Ac-KKKFAAVKDTILQLNLKEYNLV-OH [SBL-GQ-02], in assay [2], the “IC50 (µM)” value was 474 µM and the “Shift (IC50 ratio without/with peptidomimetic), RLA” value was 2.

These data come from patent publication US20260242759A1, “GQ/11 Protein Peptidomimetics” (Vrije Universiteit Brussel, priority 2022, published 2026).
